Data on three molecules can be found in PMC9992269 (Molecular cell, 2023).

The target of experiment [1] is T1, Npl4 (wild type, purified without Ufd1) (UniProt P33755 1-580).
T1 sequence (looked up): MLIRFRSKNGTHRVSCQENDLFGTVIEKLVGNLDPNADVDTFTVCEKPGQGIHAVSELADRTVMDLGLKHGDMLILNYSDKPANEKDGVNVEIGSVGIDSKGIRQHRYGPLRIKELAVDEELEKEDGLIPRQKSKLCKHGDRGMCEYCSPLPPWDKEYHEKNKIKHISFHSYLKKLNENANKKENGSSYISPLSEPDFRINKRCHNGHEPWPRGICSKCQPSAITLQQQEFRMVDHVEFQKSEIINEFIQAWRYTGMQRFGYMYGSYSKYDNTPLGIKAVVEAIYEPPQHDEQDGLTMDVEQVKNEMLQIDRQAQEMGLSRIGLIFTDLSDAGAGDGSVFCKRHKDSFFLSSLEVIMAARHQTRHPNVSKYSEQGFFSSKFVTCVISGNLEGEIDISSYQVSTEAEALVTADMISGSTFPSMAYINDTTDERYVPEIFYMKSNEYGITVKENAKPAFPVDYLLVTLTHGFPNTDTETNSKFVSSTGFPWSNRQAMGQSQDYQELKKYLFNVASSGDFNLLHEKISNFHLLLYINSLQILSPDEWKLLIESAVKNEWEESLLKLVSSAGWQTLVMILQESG
Briefly: SEC. On the technique in general: Size exclusion chromatography separates by hydrodynamic size, large species first.

A further experiment concerns the target T2, Ufd1^L55R/Npl4 (UniProt P53044 1-361; P33755 1-580, L55R).
T2 sequence (looked up) 1: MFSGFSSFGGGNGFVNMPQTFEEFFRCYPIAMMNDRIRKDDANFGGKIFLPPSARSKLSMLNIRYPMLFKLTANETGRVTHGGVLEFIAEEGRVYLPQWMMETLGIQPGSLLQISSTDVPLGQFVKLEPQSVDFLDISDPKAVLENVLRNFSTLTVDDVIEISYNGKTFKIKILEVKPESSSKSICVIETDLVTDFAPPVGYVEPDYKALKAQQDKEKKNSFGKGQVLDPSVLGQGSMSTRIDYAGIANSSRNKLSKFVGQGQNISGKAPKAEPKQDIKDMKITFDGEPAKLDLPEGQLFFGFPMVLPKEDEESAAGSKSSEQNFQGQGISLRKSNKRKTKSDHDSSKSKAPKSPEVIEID
T2 sequence (looked up) 2: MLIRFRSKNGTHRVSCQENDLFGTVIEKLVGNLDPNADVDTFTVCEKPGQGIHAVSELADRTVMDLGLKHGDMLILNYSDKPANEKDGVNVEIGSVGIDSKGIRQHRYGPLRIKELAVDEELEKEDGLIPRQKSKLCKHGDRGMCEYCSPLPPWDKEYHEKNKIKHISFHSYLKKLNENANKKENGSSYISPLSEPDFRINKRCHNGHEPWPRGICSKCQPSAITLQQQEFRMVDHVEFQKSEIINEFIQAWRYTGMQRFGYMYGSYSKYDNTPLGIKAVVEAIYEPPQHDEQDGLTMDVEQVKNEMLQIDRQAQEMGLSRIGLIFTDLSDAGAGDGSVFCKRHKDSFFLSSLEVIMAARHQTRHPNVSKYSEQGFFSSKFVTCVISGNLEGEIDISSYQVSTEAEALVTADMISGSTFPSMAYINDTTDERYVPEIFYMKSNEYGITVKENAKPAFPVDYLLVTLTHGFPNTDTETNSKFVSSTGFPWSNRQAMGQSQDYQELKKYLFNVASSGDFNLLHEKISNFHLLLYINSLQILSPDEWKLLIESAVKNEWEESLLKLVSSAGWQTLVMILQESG
The experiment in a line: ATPase activity titration.

Experiment [2] deals with T3, Ufd1/Npl4 heterodimer (wild type) (UniProt P53044 1-361; P33755 1-580).
T3 sequence (looked up) 1: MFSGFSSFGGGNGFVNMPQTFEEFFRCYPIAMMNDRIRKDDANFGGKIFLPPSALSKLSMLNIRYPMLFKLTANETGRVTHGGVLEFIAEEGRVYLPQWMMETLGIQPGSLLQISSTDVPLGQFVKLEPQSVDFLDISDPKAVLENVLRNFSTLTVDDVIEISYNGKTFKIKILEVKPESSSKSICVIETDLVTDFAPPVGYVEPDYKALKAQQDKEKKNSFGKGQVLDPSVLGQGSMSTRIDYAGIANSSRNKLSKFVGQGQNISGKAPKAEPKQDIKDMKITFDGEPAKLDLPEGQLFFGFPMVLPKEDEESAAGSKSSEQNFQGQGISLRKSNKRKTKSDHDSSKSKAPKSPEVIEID
T3 sequence (looked up) 2: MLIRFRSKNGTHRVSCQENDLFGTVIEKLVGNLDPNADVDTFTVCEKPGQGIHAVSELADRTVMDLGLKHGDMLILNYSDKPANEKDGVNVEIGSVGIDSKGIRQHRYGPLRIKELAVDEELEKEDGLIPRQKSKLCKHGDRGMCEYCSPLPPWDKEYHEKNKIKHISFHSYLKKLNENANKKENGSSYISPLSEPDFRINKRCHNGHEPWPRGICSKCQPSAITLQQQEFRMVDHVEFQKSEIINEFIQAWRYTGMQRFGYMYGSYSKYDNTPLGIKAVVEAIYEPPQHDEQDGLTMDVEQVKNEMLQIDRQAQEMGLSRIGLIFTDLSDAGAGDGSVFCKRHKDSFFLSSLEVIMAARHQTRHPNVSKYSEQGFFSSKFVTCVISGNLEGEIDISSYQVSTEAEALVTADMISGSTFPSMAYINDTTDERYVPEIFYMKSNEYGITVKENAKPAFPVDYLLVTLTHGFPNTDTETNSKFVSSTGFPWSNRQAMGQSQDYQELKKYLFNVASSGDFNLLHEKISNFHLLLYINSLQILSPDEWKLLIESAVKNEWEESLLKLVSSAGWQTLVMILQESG
The experiment in a line: ATPase activity titration.

B1: Ufd1 (wild type, purified without Npl4) (natural protein, UniProt P53044 1-361, looked up)
chain: MFSGFSSFGGGNGFVNMPQTFEEFFRCYPIAMMNDRIRKDDANFGGKIFLPPSALSKLSMLNIRYPMLFKLTANETGRVTHGGVLEFIAEEGRVYLPQWMMETLGIQPGSLLQISSTDVPLGQFVKLEPQSVDFLDISDPKAVLENVLRNFSTLTVDDVIEISYNGKTFKIKILEVKPESSSKSICVIETDLVTDFAPPVGYVEPDYKALKAQQDKEKKNSFGKGQVLDPSVLGQGSMSTRIDYAGIANSSRNKLSKFVGQGQNISGKAPKAEPKQDIKDMKITFDGEPAKLDLPEGQLFFGFPMVLPKEDEESAAGSKSSEQNFQGQGISLRKSNKRKTKSDHDSSKSKAPKSPEVIEID
Turning to B1, the binding result in experiment [1] was “binds”.

B2: Ufd1^L55R (purified without Npl4) (natural protein, UniProt P53044 1-361, looked up)
chain: MFSGFSSFGGGNGFVNMPQTFEEFFRCYPIAMMNDRIRKDDANFGGKIFLPPSARSKLSMLNIRYPMLFKLTANETGRVTHGGVLEFIAEEGRVYLPQWMMETLGIQPGSLLQISSTDVPLGQFVKLEPQSVDFLDISDPKAVLENVLRNFSTLTVDDVIEISYNGKTFKIKILEVKPESSSKSICVIETDLVTDFAPPVGYVEPDYKALKAQQDKEKKNSFGKGQVLDPSVLGQGSMSTRIDYAGIANSSRNKLSKFVGQGQNISGKAPKAEPKQDIKDMKITFDGEPAKLDLPEGQLFFGFPMVLPKEDEESAAGSKSSEQNFQGQGISLRKSNKRKTKSDHDSSKSKAPKSPEVIEID
With B2, in experiment [1], the binding result is listed as “binds”.

B3: Cdc48 (enzyme, yeast, UniProt P25694 1-835, looked up)
chain: MGEEHKPLLDASGVDPREEDKTATAILRRKKKDNMLLVDDAINDDNSVIAINSNTMDKLELFRGDTVLVKGKKRKDTVLIVLIDDELEDGACRINRVVRNNLRIRLGDLVTIHPCPDIKYATRISVLPIADTIEGITGNLFDVFLKPYFVEAYRPVRKGDHFVVRGGMRQVEFKVVDVEPEEYAVVAQDTIIHWEGEPINREDEENNMNEVGYDDIGGCRKQMAQIREMVELPLRHPQLFKAIGIKPPRGVLMYGPPGTGKTLMARAVANETGAFFFLINGPEVMSKMAGESESNLRKAFEEAEKNAPAIIFIDEIDSIAPKRDKTNGEVERRVVSQLLTLMDGMKARSNVVVIAATNRPNSIDPALRRFGRFDREVDIGIPDATGRLEVLRIHTKNMKLADDVDLEALAAETHGYVGADIASLCSEAAMQQIREKMDLIDLDEDEIDAEVLDSLGVTMDNFRFALGNSNPSALRETVVESVNVTWDDVGGLDEIKEELKETVEYPVLHPDQYTKFGLSPSKGVLFYGPPGTGKTLLAKAVATEVSANFISVKGPELLSMWYGESESNIRDIFDKARAAAPTVVFLDELDSIAKARGGSLGDAGGASDRVVNQLLTEMDGMNAKKNVFVIGATNRPDQIDPAILRPGRLDQLIYVPLPDENARLSILNAQLRKTPLEPGLELTAIAKATQGFSGADLLYIVQRAAKYAIKDSIEAHRQHEAEKEVKVEGEDVEMTDEGAKAEQEPEVDPVPYITKEHFAEAMKTAKRSVSDAELRRYEAYSQQMKASRGQFSNFNFNDAPLGTTATDNANSNNSAPSGAGAAFGSNAEEDDDLYS
For orientation: Kd means the equilibrium constant for the complex coming apart. The low end stands for tighter binding, the high end for weaker binding. In the case of B3, the figures for the Kd (in the experiment with Ufd1^L55R/Npl4; in experiment [2]) were 500 nM and 1000 nM, respectively.
